Source: article PMC5955915

Tests used:
[1] = molecular target: BG505 NFL.664 (native flexibly linked, cleavage-independent soluble HIV Env trimer) (HIV-1 isolate BG505 (clade A)); test: cryo-EM structure
[2] = molecular target: BG505 NFL.664 (native flexibly linked, cleavage-independent soluble HIV Env trimer) (HIV-1 isolate BG505 (clade A)); test: crystal structure
[3] = DSC; settings: glycan changed form; control: BG505 NFL.664 from HEK 293F, natural glycoforms
[4] = molecular target: BG505 SOSIP.664; test: BLI

| Kd [4] [nM] | koff [4] [s⁻¹] | Substance | stoichiometry N [1] | stoichiometry N [2] | stability_or_folding, Tm [3] |
| --- | --- | --- | --- | --- | --- |
|  |  | BG505 NFL.664 (native flexibly linked, cleavage-independent soluble HIV Env trimer) | 3 | 3 |  |
|  |  | BG505 NFL.664 Env trimer: kifunensine and swainsonine (oligomannose only) |  |  | no change, 66.6 vs 65.8 |
| 58.5 | 0.00033 | PGT121 Fab |  |  |  |
| 38.3 | 0.00059 | PGT124 Fab |  |  |  |
